Reference: the supplement of paper PMC10567573

B1: FUT8 (parent)
chain: YAHQPRTADEIPMEPGDIIGVAGN

Variants of: B1
Assay: protein stability index of a GFP-peptide fusion (GPS, HEK-293T) (PSI 1-6); higher = more stable
Conditions: c terminus: a fixed tail appended
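Also: lentivirally expressed fusions sorted by FACS into six bins by GFP to DsRed ratio, PSI derived from sequencing read proportions per bin multiplied by bin number.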

Protein stability index, by site and new letter:
Q4: I 3.54; H 3.92; R 3.06; C 3.81; P 3.52; Y 3.66; W 1.98; G 3.52; D 4.36
G23: Q 4.11; H 3.99; M 3.7; Y 3.13; K 4.19; R 3.31; F 2.99; I 2.87; L 3.27
E14: M 3.25; R 3.48; Y 2.27; N 3.25; C 3.32; G 3.35; P 3.12; Q 3.47; V 3.58; H 3.5; W 2.1
E10: V 3.37; W 2.23; G 2.53; I 2.99; H 3.33; S 3.74; T 3.66; L 3.56; R 2.96
Y1: S 4.88; R 4.84; Q 5.12; L 4.75; A 5.22; E 4.92; T 5.16; K 5; P 5.26
I11: F 3.71; S 4.09; Q 4.46; L 3.47; G 3.98; N 4.26; V 4.55; M 4.09; R 4.07; A 4.44
M13: K 3.95; T 4.34; L 4.1; N 4.46; W 3.08; P 4.18; I 3.87; D 4.82; H 4.33; F 3.43; R 4.43
G20: A 4.26; I 3.26; K 4.34; D 4.59; L 2.96; M 4.11; P 4.47; E 4.48; Q 4.06; T 4.37; V 3.5
V21: Y 3.82; P 4.13; N 4.28; D 4.62; K 3.99; S 4.05; I 3.93; H 4.15
D17: Q 4.14; M 3.06; E 4.24; F 2.03; C 2.79; W 1.41; G 3.38; K 3.25; A 3.23; N 3.48; S 3.78
A8: D 4.49; F 3.48; P 4.32; G 4.19; Y 3.15; S 3.87; E 4.4; W 2.78; V 3.77; L 3.43; N 4.22
D9: N 3.65; M 3.74; F 2.68; P 3.33; H 3.67; W 2.16; S 3.67; G 3.52; R 3.41
P12: I 3.27; S 4.08; R 3.28; E 4.2; W 2.4; N 3.73; F 3.27; L 3.57
P15: K 4.16; L 3.2; F 3.52; D 4.32; H 3.86; N 4.08; C 3.58; G 4.16; Y 3.31; M 3.68; E 4.57
H3: L 4.77; V 4.46; Q 4.39; G 3.36; N 4.43; K 4.34; S 4.36; F 3.66; D 4.78
A22: L 3.63; N 4.38; T 3.87; D 4.19; Q 4.31; P 4.06; W 2.41; F 2.85; V 3.26; Y 3.27
P5: I 3.4; L 3.75; F 3.11; R 3.55; N 4.33; A 4.23; S 3.85; D 4.93; W 1.88; G 3.96
G16: S 3.87
